From patent publication US6783760 come the findings set out here.

The target of this experiment is anti-VCAM-1.tTF coaguligand (anti-VCAM-1 antibody IgG covalently linked via SMPT to truncated tissue factor with an added N-terminal cysteine) (human) (UniProt P13726). As to the kind of experiment: 125I-labeled 10H10 bound to anti-VCAM-1.tTF-treated IL-1α-activated bEnd.3 cells, gamma counting.
Sequence of UniProt P13726 (P13726 other isoform, or with tags, fused parts or gaps): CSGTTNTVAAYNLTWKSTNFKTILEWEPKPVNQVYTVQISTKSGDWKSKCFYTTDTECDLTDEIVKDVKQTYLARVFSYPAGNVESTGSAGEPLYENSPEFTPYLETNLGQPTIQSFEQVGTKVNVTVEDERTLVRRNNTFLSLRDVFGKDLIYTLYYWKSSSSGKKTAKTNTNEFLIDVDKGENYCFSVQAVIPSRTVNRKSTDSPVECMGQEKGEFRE

In turn, “10H10, mouse monoclonal antibody against human tissue factor” returned an anti-TF antibody bound to coaguligand-treated cells at saturation of 8.7 fmol and a molecules of anti-TF antibody bound per cell at saturation (molecules of anti-TF antibody per cell) of 540000.
